What was measured:
ProXp-ala WT [1] = target: T1, ProXp-ala WT (Caulobacter crescentus, UniProt Q9ABV9 1-168); assay: EMSA; apparent, Hill fit; EMSA: 81 nM duplex annealed in 50 mM sodium phosphate pH 7.5, 150 mM NaCl, 0-114 μM protein, 1 h room temp, 16% native gel in TBE; NMR: same phosphate buffer, 1; settings: protein: recombinant, tags: N-terminal His6 removed by thrombin, leaves Gly-Ser-His, label: 3' 6FAM on strand 1
T1 sequence: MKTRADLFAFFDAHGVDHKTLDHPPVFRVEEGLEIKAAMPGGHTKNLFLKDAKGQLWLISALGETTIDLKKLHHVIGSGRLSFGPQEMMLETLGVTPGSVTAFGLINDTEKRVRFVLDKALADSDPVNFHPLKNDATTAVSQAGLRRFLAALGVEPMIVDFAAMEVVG

ProXp-ala WT [2] = target: T1, ProXp-ala WT; assay: NMR; 100 μM each; EMSA: 81 nM duplex annealed in 50 mM sodium phosphate pH 7.5, 150 mM NaCl, 0-114 μM protein, 1 h room temp, 16% native gel in TBE; NMR: same phosphate buffer, 1; settings: protein: recombinant; tags: N-terminal His6 removed by thrombin; leaves Gly-Ser-His; hairpin; 7 bp stem, 3' ACCA single-stranded
ProXp-ala WT [3] = target: T1, ProXp-ala WT; assay: NMR; 100 μM each; indistinguishable from microhelixPro; EMSA: 81 nM duplex annealed in 50 mM sodium phosphate pH 7.5, 150 mM NaCl, 0-114 μM protein, 1 h room temp, 16% native gel in TBE; NMR: same phosphate buffer, 1; settings: protein: recombinant; tags: N-terminal His6 removed by thrombin; leaves Gly-Ser-His; hairpin; 12 bp stem, 3' ACCA single-stranded

B1: duplexPro A76G (dsRNA)
RNA 1: CGGCGAGGGAGGUU
RNA 2: AUCCUCUCUCGCCGACCG
Kd (ProXp-ala WT [1]; 3' overhang 4 nt on strand 2): 66 ± 11 µM

B2: duplexPro A76U (dsRNA)
RNA 1: CGGCGAGGGAGGUU
RNA 2: AUCCUCUCUCGCCGACCU
Kd (ProXp-ala WT [1]; 3' overhang 4 nt on strand 2): 106 ± 16 µM

B3: duplexPro A76 (WT) (dsRNA)
RNA 1: CGGCGAGGGAGGUU
RNA 2: AUCCUCUCUCGCCGACCA
Kd (ProXp-ala WT [1]; 3' overhang 4 nt (ACCA) on strand 2): 33 ± 11 µM

B4: duplexPro A76C (dsRNA)
RNA 1: CGGCGAGGGAGGUU
RNA 2: AUCCUCUCUCGCCGACCC
Kd (ProXp-ala WT [1]; 3' overhang 4 nt on strand 2): 87 ± 4 µM

B5: duplexPro ΔA76 (dsRNA)
RNA 1: CGGCGAGGGAGGUU
RNA 2: AUCCUCUCUCGCCGACC
Kd (ProXp-ala WT [1]; 3' overhang 3 nt on strand 2): 75 ± 12 µM

B6: duplexPro dA76 (dsRNA)
RNA 1: CGGCGAGGGAGGUU
RNA 2: AUCCUCUCUCGCCGACCA
modifications: 2'-deoxy-A at 3' terminus of strand 2
Kd (ProXp-ala WT [1]; 3' overhang 4 nt on strand 2): 34 ± 5 µM

CGGCGAGUUCGCUCGCCGACCA (structured_RNA) [microhelixPro]
binding result (ProXp-ala WT [2]): binds

CGGCGAGGGAGGUUCGAAUCCUCUCUCGCCGACCA (structured_RNA) [minihelixPro]
binding result (ProXp-ala WT [3]): binds

B7: duplexPro 3'pΔA76 (dsRNA)
RNA 1: CGGCGAGGGAGGUU
RNA 2: AUCCUCUCUCGCCGACC
modifications: 3' phosphate on terminal C of strand 2
Kd (ProXp-ala WT [1]; 3' overhang 3 nt on strand 2): 63 ± 11 µM

Reference: publication PMC10164551, “Structural basis of tRNAPro acceptor stem recognition by a bacterial trans-editing domain”
